Measured values as given in ChEMBL document CHEMBL2074313, “Polyspecific substrate uptake by the hepatic organic anion transporter Oatp1 in stably transfected CHO cells” (Am J Physiol, 1999).

T1: Oatp1 (Solute carrier organic anion transporter family member 1A1) (Rattus norvegicus, UniProt P46720)
T1 sequence (P46720 whole entry): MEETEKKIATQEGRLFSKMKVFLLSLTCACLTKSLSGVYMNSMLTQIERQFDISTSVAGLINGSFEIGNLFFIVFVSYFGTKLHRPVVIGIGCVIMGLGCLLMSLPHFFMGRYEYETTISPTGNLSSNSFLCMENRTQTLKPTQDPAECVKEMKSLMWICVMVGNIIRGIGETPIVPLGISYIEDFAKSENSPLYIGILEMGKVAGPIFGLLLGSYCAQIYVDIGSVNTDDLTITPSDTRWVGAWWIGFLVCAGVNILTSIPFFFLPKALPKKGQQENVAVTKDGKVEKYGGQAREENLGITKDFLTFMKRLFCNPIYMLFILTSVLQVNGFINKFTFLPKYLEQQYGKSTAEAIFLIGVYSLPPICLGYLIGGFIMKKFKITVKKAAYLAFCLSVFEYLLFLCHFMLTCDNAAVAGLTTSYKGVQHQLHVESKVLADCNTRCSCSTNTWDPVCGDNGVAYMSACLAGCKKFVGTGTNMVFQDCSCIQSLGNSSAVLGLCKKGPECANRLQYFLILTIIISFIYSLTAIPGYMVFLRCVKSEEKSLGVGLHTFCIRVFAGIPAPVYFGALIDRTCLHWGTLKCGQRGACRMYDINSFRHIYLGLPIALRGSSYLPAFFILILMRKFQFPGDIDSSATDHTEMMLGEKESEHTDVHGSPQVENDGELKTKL


Assays:
Assay type in all cases: functional, cell-based
[1] = biological target: T1, Oatp1 (Solute carrier organic anion transporter family member 1A1); experiment: (§1) TP_TRANSPORTER: uptake in Oatp1-expressing CHO-03 cell; settings: hamster, CHO-03 cells expressing Oatp1
[2] = substrate: COc1cc(C)c(S(=O)(=O)N[C@@H](CC(=O)O)C(=O)N[C@H](Cc2ccc(C(=N)N)cc2)C(=O)N2CCCCC2)c(C)c1C; experiment: as §1
[3] = substrate: C[C@]12CC[C@@H]3c4ccc(O)cc4CC[C@H]3[C@@H]1CC[C@@H]2O[C@@H]1O[C@H](C(=O)O)[C@@H](O)[C@H](O)[C@H]1O; experiment: as §1
[4] = substrate: [H][C@@]12CC=C3C[C@@H](OS(=O)(=O)O)CC[C@]3(C)[C@@]1([H])CC[C@]1(C)C(=O)CC[C@@]21[H]; experiment: as §1
[5] = substrate: O=C1OC(c2ccc(O)c(S(=O)(=O)O)c2)(c2ccc(O)c(S(=O)(=O)O)c2)c2c(Br)c(Br)c(Br)c(Br)c21; experiment: as §1
[6] = substrate: C[C@]12CC[C@@H]3c4ccc(OS(=O)(=O)O)cc4CC[C@H]3[C@@H]1CCC2=O; experiment: as §1
[7] = substrate: C[C@H](CCC(=O)NCCS(=O)(=O)O)[C@H]1CC[C@H]2[C@@H]3[C@H](O)C[C@@H]4C[C@H](O)CC[C@]4(C)[C@H]3CC[C@]12C; experiment: as §1
[8] = substrate: C[C@H](CCC(=O)NCCS(=O)(=O)O)[C@H]1CC[C@H]2[C@@H]3[C@@H](O)C[C@@H]4C[C@H](O)CC[C@]4(C)[C@H]3CC[C@]12C; experiment: as §1

Row | Molecule | Km [1] | Km [2] | Km [3] | Km [4] | Km [5] | Km [6] | Km [7] | Km [8]
1 | C[C@@H]1Cc2c(Cl)cc(C(=O)N[C@@H](Cc3ccccc3)C(=O)O)c(O)c2C(=O)O1 [3R14S-OCHRATOXIN A] | 29 µM |  |  |  |  |  |  | 
2 | C[C@@H]1O[C@@H](O[C@H]2C[C@@H](O)[C@]3(CO)[C@H]4[C@H](O)C[C@]5(C)[C@@H](C6=CC(=O)OC6)CC[C@]5(O)[C@@H]4CC[C@]3(O)C2)[C@H](O)[C@H](O)[C@H]1O [OUABAIN] | 3000 µM |  |  |  |  |  |  | 
3 | Solute carrier organic anion transporter family member 1A1 (Rattus norvegicus) (protein) MEETEKKIATQEGRLFSKMKVFLLSLTCACLTKSLSGVYMNSMLTQIERQFDISTSVAGLINGSFEIGNLFFIVFVSYFGTKLHRPVVIGIGCVIMGLGCLLMSLPHFFMGRYEYETTISPTGNLSSNSFLCMENRTQTLKPTQDPAECVKEMKSLMWICVMVGNIIRGIGETPIVPLGISYIEDFAKSENSPLYIGILEMGKVAGPIFGLLLGSYCAQIYVDIGSVNTDDLTITPSDTRWVGAWWIGFLVCAGVNILTSIPFFFLPKALPKKGQQENVAVTKDGKVEKYGGQAREENLGITKDFLTFMKRLFCNPIYMLFILTSVLQVNGFINKFTFLPKYLEQQYGKSTAEAIFLIGVYSLPPICLGYLIGGFIMKKFKITVKKAAYLAFCLSVFEYLLFLCHFMLTCDNAAVAGLTTSYKGVQHQLHVESKVLADCNTRCSCSTNTWDPVCGDNGVAYMSACLAGCKKFVGTGTNMVFQDCSCIQSLGNSSAVLGLCKKGPECANRLQYFLILTIIISFIYSLTAIPGYMVFLRCVKSEEKSLGVGLHTFCIRVFAGIPAPVYFGALIDRTCLHWGTLKCGQRGACRMYDINSFRHIYLGLPIALRGSSYLPAFFILILMRKFQFPGDIDSSATDHTEMMLGEKESEHTDVHGSPQVENDGELKTKL |  | 57 µM | 4 µM | 5 µM | 3 µM | 11 µM | 7 µM | 13 µM
